From patent US20220340642A1 (Kyowa Kirin, published 2022)
Numbering of substitutions follows the chain as printed. Names may count otherwise.

B1: chimera A-E57K_R58D-Fc (Eg1S LALAGANA) (Fc fusion)
chain: ETFPPKYLHYDEETSHQLLCDKCPPGTYLKQHCTAKWKTVCAPCPPRHYTQFWNYLKDCRYCNVLCGEREEEARACHATHNRACRCRTGFFAHAGFCLEHASCPPGAGVIAPGTPSQNTQCQPCPDGFFSNETSSKAPCRKHTNCSVFGLLLTQKGNATHDNICSGNSESTQKEPKSSDKTHTCPPCPAPEAAGAPSVFLFPPKPKDTLMISRTPEVTCVVVDVSHEDPEVKFNWYVDGVEVHNAKTKPREEQYNSTYRVVSVLTVLHQDWLNGKEYKCKVSNKALPAPIEKTISKAKGQPREPQVYTLPPSRDELTKNQVSLTCLVKGFYPSDIAVEWESNGQPENNYKTTPPVLDSDGSFFLYSKLTVDKSRWQQGNVFSCSVMHEALHAHYTQKSLSLSPGK
B2: chimera A-E57K-Fc (Eg1S YTE) (Fc fusion)
chain: B1 chain with D58R, A192L, A193L, A195G, M210Y, S212T, T214E, A392N
B3: chimera A-E57K-Fc (Eg1S LALAGANA) (Fc fusion)
chain: B1 chain with D58R
B4: chimera A-E57R-Fc (Eg1S YTE) (Fc fusion)
chain: B1 chain with K57R, D58R, A192L, A193L, A195G, M210Y, S212T, T214E, A392N
B5: chimera A-E57R-Fc (Eg1S LALAGANA) (Fc fusion)
chain: B1 chain with K57R, D58R
B6: chimera A-E57V-Fc (Eg1S LALAGANA) (Fc fusion)
chain: B1 chain with K57V, D58R
B7: chimera A-E57V-Fc (Eg1S YTE) (Fc fusion)
chain: B1 chain with K57V, D58R, A192L, A193L, A195G, M210Y, S212T, T214E, A392N
B8: chimera A-E57K_R58E-Fc (Eg1S LALAGANA) (Fc fusion)
chain: B1 chain with D58E
B9: chimera A-Fc (Eg1S YTE) (Fc fusion)
chain: B1 chain with K57E, D58R, A192L, A193L, A195G, M210Y, S212T, T214E, A392N
B10: chimera A-Fc (Eg1S LALAGANA) (Fc fusion)
chain: B1 chain with K57E, D58R
B11: chimera A-E57K_R58E-Fc (Eg1S YTE) (Fc fusion)
chain: B1 chain with D58E, A192L, A193L, A195G, M210Y, S212T, T214E, A392N
notes: also called 45-18-Fc (Eg1S YTE)
B12: chimera A-E57K_R58D-Fc (Eg1S YTE) (Fc fusion)
chain: B1 chain with A192L, A193L, A195G, M210Y, S212T, T214E, A392N
notes: also called 45-10-Fc (Eg1S YTE)

target: T1, membrane-bound human TL1A (Met and FLAG tag at the N-terminus) on CHO-K1 cells (human, UniProt O95150 2-251); assay: flow cytometry on expressing cells
T1 construct: also called TL1A/CHO
T1 sequence: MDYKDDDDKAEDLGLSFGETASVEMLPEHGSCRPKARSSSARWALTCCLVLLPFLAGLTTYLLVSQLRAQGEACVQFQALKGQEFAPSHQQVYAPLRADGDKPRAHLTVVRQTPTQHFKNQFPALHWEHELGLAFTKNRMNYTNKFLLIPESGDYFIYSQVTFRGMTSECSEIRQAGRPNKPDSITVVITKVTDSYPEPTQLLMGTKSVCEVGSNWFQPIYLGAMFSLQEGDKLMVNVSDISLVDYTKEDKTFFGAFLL
Method in brief: (§1)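 Binding was measured by flow cytometry on HEK293 cells forced to express membrane-bound LIGHT and on cell lines expressing N-terminally Met/FLAG-tagged TL1A or FasL from a CMV-promoter pClpuro vector. Cells at 1×10⁵ cells/well received 1 or 10 μg/mL protein on ice for 1 hour. After washing, cells were stained on ice for 1 hour with LIVE/DEAD Fixable Aqua and R-phycoerythrin goat F(ab′)₂ anti-human IgG (10 ng/mL, 0.1 or 1 μg/mL). Fluorescence was read on a FACS Fortessa.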

Binding result, binds:
B1
B2
B3
B4
B5
B6
B7
B8
B9
B10
B11
B12

target: T2, membrane-bound human LIGHT (human, UniProt O43557 1-240); assay: flow cytometry on expressing cells
T2 construct: whole, on cells; also called LIGHT/HEK293
T2 sequence (O43557 whole entry): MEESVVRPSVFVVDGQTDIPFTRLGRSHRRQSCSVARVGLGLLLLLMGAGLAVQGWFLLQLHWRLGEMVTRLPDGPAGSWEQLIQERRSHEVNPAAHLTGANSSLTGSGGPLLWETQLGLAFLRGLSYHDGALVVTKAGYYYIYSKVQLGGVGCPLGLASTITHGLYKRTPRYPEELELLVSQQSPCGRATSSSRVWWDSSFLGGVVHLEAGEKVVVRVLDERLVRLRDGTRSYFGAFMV
Method in brief: as §1

Binding result, binds:
B1
B2
B3
B4
B5
B6
B7
B8
B9
B10
B11
B12

target: T3, Human His6 Fas Ligand/TNFSF6 (Cell Signaling Technology, Inc.) (human, UniProt P48023 133-281); assay: SPR, binder captured on Protein A chip
T3 construct: Bought; confirmed as a trimer by SEC-MALS; also called recombinant human His6 Fas Ligand; soluble human FasL trimer
T3 sequence: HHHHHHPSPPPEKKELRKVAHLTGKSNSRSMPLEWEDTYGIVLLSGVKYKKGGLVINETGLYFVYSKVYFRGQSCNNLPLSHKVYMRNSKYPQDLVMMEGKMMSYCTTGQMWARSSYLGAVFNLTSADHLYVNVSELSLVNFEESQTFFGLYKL
Method in brief: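 DcR3 variants were captured on a Protein A chip in HBS-EP+, with human or cynomolgus ligand trimers injected as analyte at 0.08–20 nmol/L and 30 μL/min. LIGHT, TL1A and cynomolgus trimers had 2 min association and 5 min dissociation; human FasL had 1 min and 3 min. Surfaces were regenerated with 3 mol/L MgCl2.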

Binding result, binds:
B1
B2
B3
B4
B5
B6
B7
B8
B9
B10
B11
B12

target: T4, primary soluble TL1A produced from an activated human PBMC (human, UniProt O95150 72-251, limits assumed); assay: sandwich ELISA, binder captured
T4 sequence (looked up): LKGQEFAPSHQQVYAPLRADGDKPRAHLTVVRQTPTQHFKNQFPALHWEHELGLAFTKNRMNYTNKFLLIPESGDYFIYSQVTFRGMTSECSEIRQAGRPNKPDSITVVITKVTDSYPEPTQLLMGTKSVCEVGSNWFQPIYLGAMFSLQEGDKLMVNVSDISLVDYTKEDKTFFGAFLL
Procedure: (§2) Then, 10 μg/mL of anti-human IgG antibodies (American Qualex International, Inc.) were immobilized to a 96-well immunoplate (Thermo Scientific), and blocking was performed with 2% Block Ace (DS Pharma Biomedical Co., Ltd.), and then 2 μg/mL of chimera A-Fc, E57K-Fc and 45-18-Fc (in all of which Fc is Eg1S YTE or Eg1S […]) were captured. The culture supernatant of human T cells stimulated for LIGHT production was concentrated 6-fold using Amicon Ultra-15 having a molecular weight cutoff of 3 kDa (Merck Millipore) prerinsed with sterile water. After the plate was washed, the 6-fold concentrated culture supernatant was reacted. As a standard of LIGHT, the soluble recombinant FLAG-LIGHT trimer produced in Example 13 was used. After the plate was washed, a biotinylated anti-LIGHT antibody (R&D Systems, Inc.) was reacted. After the plate was washed, streptavidin-HRP (PIERCE) was reacted. After washing again, a TMB solution (Dako) was added to develop a color. Then, a 2 N sulfuric acid solution was used to stop the chromogenic reaction, and the absorbance at 450 nm (reference wavelength of 570 nm) was measured.
(§3) Sandwich ELISA was performed by the same method as in (1). On a 96-well immunoplate, chimera A-Fc, E57K-Fc and 45-18-Fc (in all of which Fc is Eg1S YTE or Eg1S […]) or the anti-human TL1A antibody produced in Example 16 was captured. Then, with the plate, a 4-fold concentrated culture supernatant of PBMCs stimulated for TL1A production or as a standard, the soluble recombinant His6-TL1A trimer produced in Example 13 was reacted, followed by detection with a biotinylated anti-TL1A antibody (R&D Systems, Inc.).
(§4) Sandwich ELISA was performed by the same method as in (1). On a 96-well immunoplate, chimera A-Fc, E57K-Fc and 45-18-Fc (each including Eg1S YTE or Eg1S […] as an Fc) or Fas-Fc (R&D Systems, Inc.) was captured, and then a 6-fold concentrated culture supernatant of human T cells stimulated for AICD or as a standard, Human His6 Fas Ligand/TNFSF6 (Cell Signaling Technology, Inc.) was reacted, followed by detection with a biotinylated anti-FasL antibody included with Human Fas Ligand ELISA Kit (Abcam plc).

Binding result, binds:
B2
B3
B8
B9
B10
B11

target: primary soluble LIGHT produced from activated human T cells (human, UniProt O43557 83-240, limits assumed); assay: sandwich ELISA, binder captured
Sequence (O43557 83-240 limits assumed): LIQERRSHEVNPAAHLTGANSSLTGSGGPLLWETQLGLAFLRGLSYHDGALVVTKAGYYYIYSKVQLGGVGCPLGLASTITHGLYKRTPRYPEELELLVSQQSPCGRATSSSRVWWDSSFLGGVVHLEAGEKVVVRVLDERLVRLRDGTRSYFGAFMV
Procedure: as §2, §3, §4

Binding result, binds:
B2
B3
B8
B9
B10
B11

target: T5, primary soluble FasL produced from human T cells stimulated for AICD (human, UniProt P48023 130-281, limits assumed); assay: sandwich ELISA, binder captured
T5 construct: also called soluble FasL derived from human T cells
T5 sequence (looked up): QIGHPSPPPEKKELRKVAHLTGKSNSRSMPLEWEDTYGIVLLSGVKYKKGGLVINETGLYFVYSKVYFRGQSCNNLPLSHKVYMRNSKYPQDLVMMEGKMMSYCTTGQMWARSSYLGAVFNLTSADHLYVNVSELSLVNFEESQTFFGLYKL
Procedure: as §2, §3, §4

Binding result, binds:
B2
B3
B8
B9
B10
B11
